Results: patent US20220195067A1 (LAMKAP BIO BETA, published 2022)

T1: recombinant human CEACAM5 Extra Cellular Domain (ECD) soluble protein (human, UniProt P06731 35-685, biotinylated in the competition ELISA of Example 4)
T1 construct: extracellular domain; also called rec. hCEACAM5; recombinant soluble human CEACAM5; not shown: C-terminal Avitag and hexa-histidine tag, or a human Fc or a mouse Fc region; which construct stood in each assay is not
T1 sequence (looked up): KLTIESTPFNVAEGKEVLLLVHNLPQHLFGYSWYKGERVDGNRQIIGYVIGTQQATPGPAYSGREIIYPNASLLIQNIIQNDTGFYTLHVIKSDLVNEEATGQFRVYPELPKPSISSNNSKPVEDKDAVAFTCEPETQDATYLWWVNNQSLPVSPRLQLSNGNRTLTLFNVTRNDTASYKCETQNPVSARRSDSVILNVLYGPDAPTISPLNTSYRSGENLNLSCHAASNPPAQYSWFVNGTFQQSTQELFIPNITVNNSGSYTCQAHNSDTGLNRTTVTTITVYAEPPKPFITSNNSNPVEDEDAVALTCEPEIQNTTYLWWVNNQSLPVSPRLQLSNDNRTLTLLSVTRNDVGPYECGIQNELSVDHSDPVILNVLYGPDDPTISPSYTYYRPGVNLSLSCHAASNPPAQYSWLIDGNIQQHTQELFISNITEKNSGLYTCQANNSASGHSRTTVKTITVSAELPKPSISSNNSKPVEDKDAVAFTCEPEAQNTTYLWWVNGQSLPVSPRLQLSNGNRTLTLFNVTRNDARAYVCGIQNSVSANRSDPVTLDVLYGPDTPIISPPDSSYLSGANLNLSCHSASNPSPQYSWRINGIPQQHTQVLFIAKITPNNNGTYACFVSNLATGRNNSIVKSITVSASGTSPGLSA

T2: his-tagged recombinant huCEACAM3 (R&D Systems, #9868-CM) (human, UniProt P40198 35-155)
T2 construct: Bought reagent; also called rec. hCEACAM3; recombinant soluble human CEACAM3; not shown: His tag
T2 sequence (looked up): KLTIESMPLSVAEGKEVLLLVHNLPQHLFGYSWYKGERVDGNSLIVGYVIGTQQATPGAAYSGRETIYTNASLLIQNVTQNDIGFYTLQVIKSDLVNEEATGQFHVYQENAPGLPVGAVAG

T3: human CEACAM5 on CEACAM5-expressing cancer cell lines (human, UniProt P06731 35-685)
T3 construct: whole, on cells; also called CEACAM5 on SK-CO-1, MKN-45, HPAF-II, SNU-C1, Ls174T, LoVo cells
T3 sequence (looked up): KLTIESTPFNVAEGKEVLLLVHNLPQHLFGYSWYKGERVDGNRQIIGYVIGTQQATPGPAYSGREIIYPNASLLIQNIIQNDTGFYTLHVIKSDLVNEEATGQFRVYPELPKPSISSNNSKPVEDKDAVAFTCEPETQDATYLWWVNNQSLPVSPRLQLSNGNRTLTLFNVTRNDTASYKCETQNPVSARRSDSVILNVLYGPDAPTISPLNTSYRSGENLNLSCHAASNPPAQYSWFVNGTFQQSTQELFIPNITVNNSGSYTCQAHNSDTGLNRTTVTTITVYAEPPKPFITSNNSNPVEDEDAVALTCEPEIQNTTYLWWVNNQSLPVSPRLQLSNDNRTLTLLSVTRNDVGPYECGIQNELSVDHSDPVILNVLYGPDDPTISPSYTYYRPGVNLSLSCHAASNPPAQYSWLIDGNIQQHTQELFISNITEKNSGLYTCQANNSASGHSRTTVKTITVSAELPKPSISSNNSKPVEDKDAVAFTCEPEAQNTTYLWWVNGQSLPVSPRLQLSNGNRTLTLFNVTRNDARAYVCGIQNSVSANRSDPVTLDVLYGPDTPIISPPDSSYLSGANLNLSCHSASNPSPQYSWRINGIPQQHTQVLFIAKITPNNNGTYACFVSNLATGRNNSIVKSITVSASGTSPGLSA

B1: K2AC84 (bispecific antibody, human IgG1, kappa, lambda)
heavy: not shown
light 1: QSVLTQPPSVSAAPGQKVTISCSGSSSNIGIGLVSWYQQLPGTAPKLLIYNVNTRPSGIPDRFSGSKSGTSATLGITGLQTGDEADYYCGTWDFSYRVDFGGGTKLTVLGQPKAAPSVTLFPPSSEELQANKATLVCLISDFYPGAVTVAWKADSSPVKAGVETTTPSKQSNNKYAASSYLSLTPEQWKSHRSYSCQVTHEGSTVEKTVAPTECS
light 2: not shown
notes: Kappa-lambda body; also called CD47xCEACAM5 bispecific antibody K2AC84; AC84 (CEACAM5 arm)
B2: K2AC100 (bispecific antibody, human IgG1, kappa, lambda)
heavy: not shown
light 1: QSVLTQPPSVSAAPGQKVTISCSGSSSNIGYGLVSWYQQLPGTAPKLLIYNGNIRPSGIPDRFSGSKSGTSATLGITGLQTGDEADYYCGTWDFSYRVDFGGGTKLTVLGQPKAAPSVTLFPPSSEELQANKATLVCLISDFYPGAVTVAWKADSSPVKAGVETTTPSKQSNNKYAASSYLSLTPEQWKSHRSYSCQVTHEGSTVEKTVAPTECS
light 2: not shown
notes: Kappa-lambda body; also called CD47xCEACAM5 bispecific antibody K2AC100; AC100 (CEACAM5 arm)

How the values were obtained:
[1] = target: T1, recombinant human CEACAM5 Extra …; assay: BLI (Octet), from Table 2
Description: (§1) The affinity of the anti-human CEACAM5 arm of the CD47×CEACAM5 bispecific antibodies of the invention for recombinant soluble human CEACAM5 was determined using the Bio-Layer Interferometry (BLI) technology. An OctetRED96 instrument and Protein A biosensors were used (Sartorius). The measurement was performed at 30° C. After hydration, pre-conditioning and a baseline step in Kinetic buffer (PBS, 0.002% Tween 20, 0.01% BSA, Kathon; Sartorius), biosensors were loaded for 5 min with the κλ body at 0.5 μg/mL in Kinetic buffer. Then, biosensors were dipped into a serial dilution of recombinant human CEACAM5 Extra Cellular Domain (ECD) soluble protein (produced in house), starting at 50 nM with a 2× dilution factor. The association and dissociation phases were monitored for 600 seconds each. Biosensors were regenerated using 10 mM glycine pH 1.7. A standard acquisition rate was applied (5.0 Hz, averaging by 20). Curves were processed with a reference well subtraction, a Y alignment on the baseline, without interstep correction. The affinity was measured applying a 1:1 global fitting model on the full association and dissociation steps. The binding affinity (KD) of the bispecific antibodies of the invention to recombinant human CD47 was determined by the same experimental procedure.
(§2) The affinity of the anti-human CEACAM5 arms of the CD47×CEACAM5 bispecific antibodies of the invention for recombinant soluble human CEACAM3 was determined using the Bio-Layer Interferometry (BLI) technology and an OctetRED96 instrument. HIS1K biosensors (Sartorius), loaded with an anti-His tag antibody, were used to capture his-tagged recombinant huCEACAM3 (R&D Systems, #9868-CM). The measurement was performed at 30° C. After hydration, pre-conditioning and a baseline step in Kinetic buffer (PBS, 0.002% Tween 20, 0.01% BSA, Kathon; Sartorius), biosensors were loaded for 5 min with the recombinant huCEACAM3 at 5 μg/mL in Kinetic buffer. Then, biosensors were dipped into a serial dilution of k bodies, starting at 667 nM with a 2× dilution factor. The association and dissociation phases were monitored for 60 seconds and 120 seconds respectively. Biosensors were regenerated using 10 mM glycine pH 1.7.

[2] = target: T2, his-tagged recombinant huCEACAM3 (R&D …); assay: BLI (Octet), from Table 2
Description: as §1, §2

[3] = target: T3, human CEACAM5 on CEACAM5-expressing …; assay: flow cytometry on MKN-45 cells, K2AC100 directly labeled with a fluorochrome, in presence of 300 nM TCB2014
Description: (§3) A binding assay to cells expressing CEACAM5 was performed as described in Example 6. […] An antibody was regarded as non-competitive if 300 nM of the antibody shifts the binding curve of a bispecific antibody of the invention by less than a factor of 3.
(§4) In this experiment, the concentration-dependent binding of CD47×CEACAM5 bispecific antibody K2AC100 was measured in the presence of an anti-CEACAM5 mAbs, either TCB2014 or TCB 2017. This binding was measured at the cell surface of CEACAM5-expressing MKN-45 cells. K2AC100 was directly labeled with a fluorochrome to follow its binding on MKN-45 cells alone (dark line, dark circles), in presence of 300 nM of TCB2014 (dark line, dark triangles) or 30 nM of TCB2017 (dark line, black diamonds). Negative controls (Ctrl) were used (IgG1 in presence of TCB2014 or TCB2017). […] Therefore, the K2AC100 antibody is non-competitive with the TCB2014 and TCB2017 antibodies with respect to CEACAM5 binding.

[4] = target: T3, human CEACAM5 on CEACAM5-expressing …; assay: flow cytometry on MKN-45 cells, K2AC100 directly labeled with a fluorochrome, in presence of 30 nM TCB2017
Description: as §3, §4

[5] = target: T3, human CEACAM5 on CEACAM5-expressing …; assay: flow cytometry on MKN-45 cells, K2AC100 directly labeled with a fluorochrome, no competitor
Description: as §3, §4

Binder | fold higher binding affinity (KD) compared to K2AC22 [1] [fold] | fold higher binding affinity (KD) compared to K2AC22 [2] [fold] | EC50 (read off the curve) [3] [µg/mL] | fold higher binding affinity (lower KD) compared to K2AC22 [1] [fold] | fold higher binding affinity (lower KD) compared to K2AC22 [2] [fold] | EC50 (read off the curve) [4] [µg/mL] | EC50 (read off the curve) [5] [µg/mL]
B1 | 46 | 28 | – | – | – | – | –
B2 | – | – | ~2 | 25 | 14 | ~2 | ~2
